{
  "source": "paper PMC2804263",
  "about": "(Biochemistry, 2009)",
  "target": "the molecule itself",
  "assay": "crystal structure",
  "data": [
    {"protein": "Bovine S100B (Ca^2+-S100B in the SBiX crystal structures) (natural protein) MSELEKAVVALIDVFHQYSGREGDKHKLKKSELKELINNELSHFLEEIKEQEVVDKVMETLDSDGDGECDFQEFMAFVAMITTACHEFFEHE", "values": [
      {"measurement": "binding result", "result": "binds"}
    ]}
  ]
}
